Results published in ChEMBL document CHEMBL2074453, “Role of multidrug resistance protein 1 (MRP1) and glutathione S-transferase A1-1 in alkylating agent resistance. Kinetics of glutathione conjugate formation and efflux govern differential cellular sensitivity to chlorambucil versus melphalan toxicity” (J Biol Chem, 2001).

Experiments:
[1] = substrate: NC(Cc1ccc(N(CCCl)CCSC[C@H](NC(=O)CC[C@H](N)C(=O)O)C(=O)NCC(=O)O)cc1)C(=O)O; assay: TP_TRANSPORTER: uptake in membrane vesicle from MCF7/VP cells; format: functional, cell membranes
[2] = substrate: NC(CCC(=O)NC(CSCCN(CCCl)c1ccc(CCCC(=O)O)cc1)C(=O)NCC(=O)O)C(=O)O; assay: TP_TRANSPORTER: uptake in membrane vesicle from MCF/VP cells; format: functional, cell membranes

B1: Multidrug resistance-associated protein 1 (Homo sapiens) (protein)
chain: MALRGFCSADGSDPLWDWNVTWNTSNPDFTKCFQNTVLVWVPCFYLWACFPFYFLYLSRHDRGYIQMTPLNKTKTALGFLLWIVCWADLFYSFWERSRGIFLAPVFLVSPTLLGITMLLATFLIQLERRKGVQSSGIMLTFWLVALVCALAILRSKIMTALKEDAQVDLFRDITFYVYFSLLLIQLVLSCFSDRSPLFSETIHDPNPCPESSASFLSRITFWWITGLIVRGYRQPLEGSDLWSLNKEDTSEQVVPVLVKNWKKECAKTRKQPVKVVYSSKDPAQPKESSKVDANEEVEALIVKSPQKEWNPSLFKVLYKTFGPYFLMSFFFKAIHDLMMFSGPQILKLLIKFVNDTKAPDWQGYFYTVLLFVTACLQTLVLHQYFHICFVSGMRIKTAVIGAVYRKALVITNSARKSSTVGEIVNLMSVDAQRFMDLATYINMIWSAPLQVILALYLLWLNLGPSVLAGVAVMVLMVPVNAVMAMKTKTYQVAHMKSKDNRIKLMNEILNGIKVLKLYAWELAFKDKVLAIRQEELKVLKKSAYLSAVGTFTWVCTPFLVALCTFAVYVTIDENNILDAQTAFVSLALFNILRFPLNILPMVISSIVQASVSLKRLRIFLSHEELEPDSIERRPVKDGGGTNSITVRNATFTWARSDPPTLNGITFSIPEGALVAVVGQVGCGKSSLLSALLAEMDKVEGHVAIKGSVAYVPQQAWIQNDSLRENILFGCQLEEPYYRSVIQACALLPDLEILPSGDRTEIGEKGVNLSGGQKQRVSLARAVYSNADIYLFDDPLSAVDAHVGKHIFENVIGPKGMLKNKTRILVTHSMSYLPQVDVIIVMSGGKISEMGSYQELLARDGAFAEFLRTYASTEQEQDAEENGVTGVSGPGKEAKQMENGMLVTDSAGKQLQRQLSSSSSYSGDISRHHNSTAELQKAEAKKEETWKLMEADKAQTGQVKLSVYWDYMKAIGLFISFLSIFLFMCNHVSALASNYWLSLWTDDPIVNGTQEHTKVRLSVYGALGISQGIAVFGYSMAVSIGGILASRCLHVDLLHSILRSPMSFFERTPSGNLVNRFSKELDTVDSMIPEVIKMFMGSLFNVIGACIVILLATPIAAIIIPPLGLIYFFVQRFYVASSRQLKRLESVSRSPVYSHFNETLLGVSVIRAFEEQERFIHQSDLKVDENQKAYYPSIVANRWLAVRLECVGNCIVLFAALFAVISRHSLSAGLVGLSVSYSLQVTTYLNWLVRMSSEMETNIVAVERLKEYSETEKEAPWQIQETAPPSSWPQVGRVEFRNYCLRYREDLDFVLRHINVTINGGEKVGIVGRTGAGKSSLTLGLFRINESAEGEIIIDGINIAKIGLHDLRFKITIIPQDPVLFSGSLRMNLDPFSQYSDEEVWTSLELAHLKDFVSALPDKLDHECAEGGENLSVGQRQLVCLARALLRKTKILVLDEATAAVDLETDDLIQSTIRTQFEDCTVLTIAHRLNTIMDYTRVIVLDKGEIQEYGAPSDLLQQRGLFYSMAKDAGLV
- Km [1]: 1.14 µM
- Km [2]: 0.37 µM
